According to patent publication US5559213A, “Polyethylene-protein conjugates” (Hoffmann-La Roche Inc., priority 1995, dated 1996):

Legend:
[1] = test system: D10 cell; experiment: D10 cell proliferation assay (specific activity of rIL-1 alpha); format: cell-based; conditions: for Specific Activity: label = apparent molecular weight (kD)
Protocol: Pegylated rIL-1 alpha was purified from the reaction mixture after 60 minutes using hydrophobic exchange chromatography (Bio-Rad; HRLC. MP7 HlC). A linear gradient with decreasing salt concentration from 0.43 to 0.0M (NH4)2 SO4 in 50 mM sodium phosphate pH 7.0 in 20 minutes was used to separate pegylated rIL-1 alpha and unmodified rIL-1 alpha. Aliquots of fractions were evaluated by SDS-PAGE and pooled fractions were assayed for specific activity in a D10 cell proliferation assays by the method described by Kaye et al. [J. Exp. Med. 158:836, (1983)]. Protein concentrations were determined spectrophotometrically at […] using an extinction coefficient of 1.0 for rIL-1 alpha. The specific activity of the rIL-1 alpha is approximately 1.0×10^8 units/mg. The 26 kD pegylated IL-1 alpha conjugate retains bioactivity within 2-3 fold of relative to IL-1 alpha.

[2] = molecular target: T1, IL-1 receptor on EL-4 membranes (Mus musculus, UniProt P13504); experiment: IL-1 radioreceptor competition binding assay
T1 construct: incubated at varying concentrations with EL-4 membranes; endogenous in cells; host or cells: EL-4 cell membranes
T1 sequence (P13504 20-576): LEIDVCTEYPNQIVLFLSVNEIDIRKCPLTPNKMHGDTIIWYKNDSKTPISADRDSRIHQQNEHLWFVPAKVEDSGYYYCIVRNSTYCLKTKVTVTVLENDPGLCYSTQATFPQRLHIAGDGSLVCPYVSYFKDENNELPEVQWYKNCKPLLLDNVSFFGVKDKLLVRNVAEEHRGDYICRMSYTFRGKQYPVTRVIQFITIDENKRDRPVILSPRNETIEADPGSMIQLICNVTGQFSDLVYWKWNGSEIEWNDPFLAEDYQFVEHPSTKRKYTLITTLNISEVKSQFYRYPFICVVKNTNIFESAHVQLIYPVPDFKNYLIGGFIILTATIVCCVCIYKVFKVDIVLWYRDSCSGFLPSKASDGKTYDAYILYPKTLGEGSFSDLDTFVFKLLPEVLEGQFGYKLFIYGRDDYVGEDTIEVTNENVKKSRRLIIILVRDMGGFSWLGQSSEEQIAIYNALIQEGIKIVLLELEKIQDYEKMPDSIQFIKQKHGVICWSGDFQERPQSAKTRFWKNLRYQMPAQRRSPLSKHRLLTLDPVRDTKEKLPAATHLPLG
Protocol: Pegylated IL-1ra was purified from the reaction mixture using hydrophobic exchange chromatography (Bio-Rad; HRLC MP7 HlC). A linear gradient with decreasing salt concentrations from 0.43 to 0.0M (NH4)2 SO4 in 50 mM sodium phosphate pH 7.0 in 20 minutes was used to separate pegylated IL-1ra and unmodified IL-1ra. Aliquots of fractions were evaluated by SDS-PAGE and pooled fractions were assayed in an IL-1 radioreceptor competition binding assay. [Kilian et al. J. Immunol., 136, 4509, (1986)]. Briefly, IL-1ra and PEG-IL-1ra were incubated at varying concentrations with EL-4 membranes for 30 min at 37° C. The [^125 I]IL-1 alpha was then added and the incubation continued for 30 min. The assay was terminated by vacuum filtration and the collection of cell bound [^125 I]IL-1 on filter plates. The concentration of IL-1ra or PEG-IL-1ra that inhibits binding of [^125l]IL- 1 by 50% (IC50) was determined graphically. […] The pegylated IL-1ra mixture retained its ability-to bind to the IL-1 receptor on EL-4 membranes within a factor 2 to 3 fold relative to the unmodified II1-1ra.

[3] = test system: MDBK; experiment: Anti-viral activity (specific activity) in an MDBK assay; format: cell-based; conditions: label = apparent molecular weight (kD)
Protocol: The predominant molecular weight species from the reaction mixture were identified by SDS-PAGE with apparent molecular weights of 15 (unmodified),and 28 kD. The 28 kD pegylated protein accounted for 40% of the, total protein. The pegylated IFN-alpha was purified from the 60 minute reaction mixture and characterized using hydrophobic exchange chromatography (Bio-Rad; Biogel-phenyl-S-PW). A linear gradient with decreasing salt concentrations from 0.42M to 0.0M (NH4)2 SO4 in 50 mM sodium phosphate pH 7.0 in 20 minutes was used to separate pegylated IFN-alpha and unmodified IFN-alpha. Aliquots of the fractions were evaluated by SDS-PAGE and pooled fractions were assayed for anti-viral activity (specific activity) in an MDBK assay by the method described in by Familletti, et al. [Methods Enzym. 78,387 (1987)].
Protein concentrations were determined spectrophotometrically at […] using an extinction coefficient of 1.0 for a 1 mg/ml IFN-alpha buffered solution.

[4] = test system: CTLL cell; experiment: CTLL cell proliferation assay (specific activity of rIL-2); format: cell-based; conditions: Example 3, Table III: rIL-2 conjugated to PEG with reagent of Example 1; label = apparent molecular weight (kD)
Protocol: Acad. Sci., USA, 84:1483, (1987)] using hydrophic exchange chromatography (Bio-Rad; Biogel-phenyl 5-PW). […] Aliquots of the fractions were evaluated by SDS-PAGE and pooled fractions were assayed to determine its specific activity in a CTLL cell proliferation assay by the method described by Gillis et al. [J. Immunology 120:2027, (1978)].

[5] = test system: rIL-1alpha induction of interleukin-6; experiment: Inhibition of rIL-1alpha induction of interleukin-6 in mice (pharmacodynamics); format: in vivo
Protocol: The pharmacodynamics of IL-1ra protein was evaluated in vivo by the ability of the IL-1ra to inhibit rIL-1alpha induction of interleukin-6. Serum from mice treated with rIL-1alpha contain high levels of IL-6, [McIntosh et al., Immunol. 143: 162, (1989)]. The administration of unmodified IL-1ra together with IL-1alpha (0 hr time point) inhibits the induction of IL-6. This test system was used to compare the pharmacodynamic properties of unmodified and PEG IL-1ra. […] Three hours later, serum samples were collected. IL-6 levels (units) were determined using a modification of an IL-6 assay that has been previously described [Van Snick et al., Proc. Natl. Acad. Sci. USA 83:9679, (1986)]. In the IL.-6 assay, B9 hybridoma cells were treated with two fold serial dilutions of the test sera in 96-well microtiter plates. Following a 3 day incubation at 37° C. in a humidified atmosphere comprised of 5% CO2 and 95% air, the wells were pulsed with 0.5 uCi of tritiated thymidine and incubated for an additional 18 hr. The cells were then harvested onto glass fiber filters and the level of tritiated thymidine incorporation was determined by scintillation counting. IL-6 activity is expressed as U/ml. IL-6 units are defined as the inverse of the serum dilution which produces half-maximal tritiated thymidine incorporation compared to a reference standard.

[6] = Example 7, Table VIII: rIL-1 alpha conjugated with reagent of Example 5

“alpha-[2-[[(2-Pyridinyloxy)carbonyl]amino]ethyl]omega-[2-[[(2-pyridinyloxy)carbonyl]amino]-ethoxy]poly(oxy-1,2-ethanediyl) SRU 180 [Example 33]” was tested, and the “Specific Activity” value [1, 6] was 4.5 × 10^6 units/mg, the IC50 ([2]; Example 6A, Table VII: IL-1ra conjugated with reagent of Example 5a, label = apparent molecular weight (kD)) was 9.0 ng/mL and the IC50 ([2]; Example 12A, Table XIII: IL-1ra pegylated with reagent of Example 11a, label = apparent molecular weight (kD)) was 6.0 ng/mL. It also gave an IC50 ([2]; Example 19, Table XIV: IL-1ra pegylated with reagent of Example 18, label = apparent molecular weight (kD)) of 30.0 ng/mL, an IC50 ([2]; Example 19A, Table XV: IL-1ra pegylated with reagent of Example 18a, label = apparent molecular weight (kD)) of 9.0 ng/mL and an IC50 ([2]; Example 29, Table XX: IL-1ra pegylated with reagent of Example 28, label = molecular weight (kD)) of 5.0 ng/mL.

In the case of “alpha-[(2-Pyridinyloxy)thiocarbonyl]-omega-methoxypoly (oxy-1,2-ethanediyl) SRU 225 [Example 28]”, the IC50 ([2]; Example 12, Table XII: IL-1ra pegylated with reagent of Example 11, label = apparent molecular weight (kD)) is reported as 3.0 ng/mL, the “Specific Activity” value ([3]; Example 8, Table IX: IFN-alpha conjugated with reagent of Example 5) is reported as 1.4 × 10^8 units/mg and the “Specific Activity” value ([3]; Example 20, Table XVI: IFN-alpha conjugated with reagent of Example 18) is reported as 8.0 × 10^7 units/mg. For the same molecule, the “Specific Activity” value [4] was 2.4 × 10^7 units/mg.

For “rIL-1 alpha: Recombinant Interleukin 1-alpha, unmodified; apparent molecular weight 17 kD by SDS-PAGE”, the “Specific Activity” value [1, 6] was 4.6 × 10^7 units/mg, the “Specific Activity” value ([1]; Example 27, Table XIX: rIL-1 alpha conjugated to PEG with reagent of Example 23) was 1.1 × 10^8 units/mg and the “specific activity of the rIL-1 alpha” value ([1]; general statement, Example 7) was “approximately 1.0×10^8 units/mg”. For the same molecule, the “IL-6 in mice treated only with IL-1” value ([5]; Example 6 experiment, 0.2 ug rIL-1 alpha, serum three hours later) was 28852 U/ml, the “IL-6 induced by IL-1 alone” value ([5]; Example 12 experiment) was 27283 u/ml and the “IL-6 response to IL-1 alone” value ([5]; Example 19A experiment, 0.05 ug rIL-1 alpha) was 9203 units/ml.

B1: 26 kD rIL-1 alpha (Example 7): rIL-1 alpha pegylated with the reagent of Example 5; apparent molecular weight 26 kD (conjugate, UniProt P01583 113-271, looked up)
Interleukin-1 alpha: SAPFSFLSNVKYNFMRIIKYEFILNDALNQSIIRANDQYLTAAALHNLDEAVKFDMGAYKSSKDDAKITVILRISKTQLYVTAQDEDQPVLLKEMPEIPKTITGSETNLLFFWETHGTKNYFTSVAHPNLFIATKQDYWVCLAGGPPSITDFQILENQA
modifications: PEG conjugate
notes: apparent molecular weight 26 kD
For B1, the “bioactivity relative to IL-1 alpha” value ([1]; Example 7) was 2-3 fold.

B2: 33 kD rIL-1 alpha (Example 7): rIL-1 alpha pegylated with the reagent of Example 5; apparent molecular weight 33 kD (conjugate, UniProt P01583 113-271, looked up)
Interleukin-1 alpha: B1 Interleukin-1 alpha
modifications: PEG conjugate
notes: apparent molecular weight 33 kD
In the case of B2, the “bioactivity relative to IL-1 alpha” value ([1]; Example 7) is reported as “substantial loss of bioactivity”.
